Experimental findings from patent publication US20180128830A1, “DETECTION OF HUMAN CYTOMEGALOVIRUS IN BREAST CANCER” (priority 2015, published 2018) are described below.

Assay [1] has as its system MDA-MB-231 cells. Briefly: Standard cell counts (hemacytometer). In kind it is cell-based, human. Conditions: 100 ng/ml, 6-well dishes. Here is the method: (§1) Cells were seeded into 96-well dishes at a density of 1×10^4 cell per well in complete medium with varying doses of cmvIL-10, and then cell viability measured at the indicated time points using the Cell Titer Glo Assay kit according to manufacturer's instructions (Promega). DNA synthesis was measured in cells prepared in the same way using the BrdU Cell Proliferation ELISA Kit (Roche, Basel, Switzerland). For experiments using inhibitors, cells were cultivated in 96-well dishes as above with a final concentration of 10 μM inhibitor and BrdU incorporation evaluated after 72 hrs. For cell counts, cells were seeded into 6-well plates at a density of 2×10^5 cells per well, harvested via trypsinization, and counted using a hemacytometer at the indicated time points. The TACS Annexin V-FITC Detection Kit (Trevigen, Gaithersburg, Md.) was used to stain cells harvested from 70% confluent T75 flasks that had been treated with 100 μM etoposide for 48 hrs in the presence or absence of 100 ng/ml cmvIL-10. Cells were then analyzed via flow cytometry to detect fluorescence. For viability assays, Cell Titer Glo reagent was utilized to quantify cells that had been seeded into 96-well dishes at a density of 1×10^4 cell per well in complete medium with varying doses of etoposide in the presence or absence of 100 ng/ml cmvIL-10 as indicated

The test system of a further assay is PAI-1. Briefly: PAI-1 ELISA on culture supernatants. In kind it is cell-based, human. Conditions: 10 ng/ml; for PAI-1 production: after 24 hours, maintained over 72 hours. The method, then: (§2) DuoSet ELISA kits (R&D Systems) were used to quantify uPAR, PAI-1, and MMP-3. For uPAR and PAI-1 measurement, MDA cells were seeded in triplicate in 96-well plate at 5.0×10^4 cell/mL density with complete L-15 media and treated with 10 ng/mL of either cmvIL-10 or hIL-10 for the indicated times and supernatants were collected daily. The ELISA was carried out on supernatants according to manufacturer's instructions using and following the addition of substrate and stop solution, absorbance of the plate was measured at 450 nm using a Dynex Opsys MR microplate reader. Sample concentrations were interpolated from a standard curve using linear regression analysis. For cell-associated MMP-3, MDA cells were seeded in 96-well plates and treated with cmvIL-10 as above. Cells were treated with cell lysis buffer (150 mM NaCl, 20 mM HEPES, 0.5% Triton-X-100, 1.0 mM NaOV4, 1.0 mM EDTA, 0.1% NaN3) supplemented with 1× protease inhibitors (Calbiochem, EMD Chemicals, San Diego Calif.) and were collected daily for the indicated time points. The lysates were evaluated for MMP-3 according to the manufacturer's instructions (R&D Systems).

In another assay the test system is uPAR. The assay is described as follows: uPAR ELISA on culture supernatants. In kind it is cell-based, human. Conditions: 10 ng/ml. The method, then:
as §2
(In general: ELISA stands for enzyme-linked immunosorbent assay.)

The subject of a further assay is Stat3. Briefly: Cell-based Stat3 ELISA. Details: species or system human. Conditions: varying doses, 15 min. The method, then:
For the Stat3 ELISA, cells were seeded into 96-well dishes at a density of 1×10^4 cell per well, treated with varying doses of cmvIL-10 in triplicate for 15 min, and then lysed in the plate and assayed for total or pStat3 using the Cell-based Stat3 ELISA kit according to manufacturer's instructions (R&D Systems). The detection of hIL-10 in supernatants from MDA-MB-231 cell cultures was performed using the IL-10 ELISA DuoSet kit as directed (R&D Systems).

For assay [2], the system named is MDA-MB-231 cells. Briefly: Cell viability under etoposide, Cell Titer Glo. In kind it is cell-based, human. Here is the method: as §1
(ATP-based viability assays read luminescence as a measure of living cells.)

The next assay has as its system MMP-3. The assay is described as follows: MMP-3 western blotting and zymography. The format is cell-based, human. Conditions: over time. Here is the method:
Confluent T-75 flasks of MDA-MB-231 cells were treated with 10 ng/mL cmvIL-10 (R&D systems) for the indicated times, then scraped and harvested into cell lysis buffer (150 mM NaCl, 20 mM HEPES, 0.5% Triton-X-100, 1.0 mM NaOV4, 1.0 mM EDTA, 0.1% NaN3) containing 1× protease inhibitors (Calbiochem). Cell lysates were clarified via centrifugation, heated at 70° C. for 10 min in reducing buffer, and the proteins separated on a 4-12% Tris-Base SDS-PAGE gel (Life Technologies, Grand Island, N.Y.). After transfer to nitrocellulose, the membrane was incubated in blocking solution (5% milk+TBS) for 1 hr at room and then probed with primary antibody: 1:1000 dilution for MMP-3 or MTSS-1 antibodies (Santa Cruz), or MAPK antiserum (Cell Signaling Tech, Danvers, Mass.), in blocking solution overnight, oscillating on a platform rocker at 4.0° C. After three washes, the membranes were incubated with a 1:2000 dilution of appropriate AP-conjugated secondary antibody on a platform rocker at room temperature for 1 hr. Protein bands were detected using western blue stabilized AP substrate (Promega, Madison, Wis.). For zymography, cell lysates were denatured in SDS buffer under non-reducing conditions without heat, and run on a 4-16% Zymogram gel using Tris-Glycine SDS running buffer according to manufacturer's instructions. […]

For another assay, the system named is MTSS1. Briefly: MTSS1 immunofluorescence microscopy. In kind it is cell-based, human. Conditions: 100 ng/mL, 96 hrs. Here is the method: MDA-MB-231 cells were seeded onto FBS-coated glass coverslips at a density of 2.0×10^5 cells/well and cultured for 48 hrs at 37° C. Cells were treated with 100 ng/mL of purified recombinant cmvIL-10 for 96 hrs, then fixed with 2% paraformaldehyde in DPBS for 20 min, washed, permeabilized with 0.2% Triton-X-100 in PBS for 15 min. The cells were washed and blocked with 10% FBS for 1 hr at 37° C., then incubated with anti-MTSS-1 antibody at a 1:100 dilution for 1 hr at 37° C. followed by the addition of goat anti-mouse TRITC secondary antibody at a 1:150 dilution for 30 min (Life Technologies) and Alexa Fluor 488 phalloidin (Molecular Probes, Eugene, Oreg.). Coverslips were washed and excess fluid was removed before inverting the coverslip onto a glass slide containing 20 μL of DAPI-containing Prolong Gold mounting medium (Life Technologies, Grand Island, N.Y.). Images were taken on a Zeiss AX10 Imager.A1 microscope (Carl Zeiss Inc., Oberkochen, Germany) using AxioVision 4.7.2 imaging software.

For the molecule “hIL-10: purified recombinant human interleukin-10 from R&D Systems”, the cell numbers result in the assay with MDA-MB-231 cells [1] is recorded as “higher cell numbers than control cultures”. Moreover, the PAI-1 production result in the assay on PAI-1 is reported as “significant increase in PAI-1 production”. Besides, the uPAR protein levels entry in the assay with uPAR was “elevated”.

B1: cmvIL-10 (protein)
chain: ATTTTIKNTKPQCRPEDYATRLQDLRVTFHRVKPTLQREDDYSVWLDGTVVKGCWGCSVMDWLLRRYLEIVFPAGDHVYPGLKTELHSMRSTLESIYKDMRQCPLLGCGDKSVISRLSQEAERKSDNGTRKGLSELDTLFSRLEEYLHSRK
For B1, the “amount of Stat3 phosphorylation (pStat3 to total Stat3)” value in the assay with Stat3 is “increased in a dose-dependent manner”. In addition, the cell numbers entry in the assay on MDA-MB-231 cells [1] is on record as “higher cell numbers than control cultures”. Also, the “cell viability over time” value with MDA-MB-231 cells [2] (10 μM etoposide, 100 ng/ml cmvIL-10) is “able to overcome etoposide-induced effects over time and proliferate robustly”. For the same molecule, in the assay on MDA-MB-231 cells [2] (varying doses of etoposide, 100 ng/ml cmvIL-10, 48 hours), the overall cell viability result was “increased overall cell viability”. Besides, the PAI-1 protein secreted entry in the assay on PAI-1 (12 hours) was “significantly increased”. Further, the PAI-1 production result in the assay with PAI-1 is recorded as “significant increase in PAI-1 production”. Moreover, the uPAR protein levels entry in the assay on uPAR is listed as “elevated”. Besides, in the assay on MMP-3, the “amount of active MMP-3 enzyme (zymography, casein digestion)” value was “also increased” and the “total MMP-3 protein (western blot)” value is “increase in total MMP-3 protein”. The “MTSS1 protein (immunofluorescence)” value in the assay with MTSS1 is listed as “dramatic reduction in the amount of MTSS1 protein”.
